Drawing on PMC8648464, this text covers Kd for two molecules.

Data set [1] addresses T1, E. coli single-stranded DNA binding protein (SSB) (Escherichia coli, UniProt P0AGE0 1-178). The experiment in a line: competition.
For data set [2], the target named is T1, E. coli single-stranded DNA binding …. The experiment in a line: single-molecule free solution hydrodynamic separation.
For data set [3] the target is unchanged. Kind of data set: competition. The source holds these as a separate data set.
Data set [4] has the same target. The experiment in a line: single-molecule free solution hydrodynamic separation. This is another data set of the same source.

T1 sequence (P0AGE0 whole entry): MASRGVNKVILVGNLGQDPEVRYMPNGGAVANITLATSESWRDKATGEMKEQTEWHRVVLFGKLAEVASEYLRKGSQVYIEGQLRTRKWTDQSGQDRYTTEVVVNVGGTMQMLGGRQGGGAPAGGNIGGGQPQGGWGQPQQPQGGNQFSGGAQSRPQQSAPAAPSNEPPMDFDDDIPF

B1: 70nt poly(dT) (ssDNA)
DNA: TTTTTTTTTTTTTTTTTTTTTTTTTTTTTTTTTTTTTTTTTTTTTTTTTTTTTTTTTTTTTTTTTTTTTT
As to B1, the Kd – broadly, a measure of binding affinity in units of concentration – in data set [1] was 22.1 ± 1.5 nM; in data set [2] it was 21.7 ± 0.2 nM.
On to TTTTTTTTTTTTTTTTTTTTTTTTTTTTTTTTTTT (ssDNA) [35nt poly(dT)], for which the results for the Kd in data set [3] and in data set [4] were 11.7 ± 0.6 nM and 10 ± 0.5 nM, respectively.
